This is an account of results in article PMC4928127, “Determination of GLUT1 Oligomerization Parameters using Bioluminescent Förster Resonance Energy Transfer” (Scientific Reports, 2016).

The target of the assay is T1, Nluc-GLUT1 (mouse, UniProt P17809 1-492).
T1 construct: facilitated glucose transporter GLUT1 (SLC2A1), mouse Glut1 open reading frame; BRET donor; also called GLUT1 fused to Nluc at the N-terminus; not shown: Nanoluciferase (Nluc), N-terminal, kept
T1 sequence (looked up): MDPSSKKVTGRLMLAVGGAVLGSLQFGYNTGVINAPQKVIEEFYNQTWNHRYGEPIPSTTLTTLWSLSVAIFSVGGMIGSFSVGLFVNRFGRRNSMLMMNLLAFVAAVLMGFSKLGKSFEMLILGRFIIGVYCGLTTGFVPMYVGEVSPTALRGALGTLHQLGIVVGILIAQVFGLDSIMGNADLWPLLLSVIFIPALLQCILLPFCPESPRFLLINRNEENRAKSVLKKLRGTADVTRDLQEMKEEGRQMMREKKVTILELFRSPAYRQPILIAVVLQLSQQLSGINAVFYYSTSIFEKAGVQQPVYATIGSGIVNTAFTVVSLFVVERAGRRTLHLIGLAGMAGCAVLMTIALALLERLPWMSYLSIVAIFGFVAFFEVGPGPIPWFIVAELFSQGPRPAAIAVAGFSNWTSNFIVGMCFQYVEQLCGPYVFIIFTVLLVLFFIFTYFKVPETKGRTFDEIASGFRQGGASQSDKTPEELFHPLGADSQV
Description: FRET or BRET; stable polyclonal 293FT/dox^GB1 cells: constitutive Nluc-GLUT1, mCherry-GLUT1 induced 48 hours with a 2-fold serial dilution of doxycycline; corrected BRET against doxycycline and against mCherry-GLUT1 level relative to endogenous GLUT1 by immunoblot. The note with it: partners not purified. In general terms: Bioluminescence resonance energy transfer reports proximity on the nanometre scale.

B1: mCherry-GLUT1 (natural protein, mouse, UniProt P17809 1-492, looked up)
chain: T1 sequence (looked up)
notes: facilitated glucose transporter GLUT1 (SLC2A1), mouse Glut1 open reading frame; BRET acceptor; also called GLUT1 fused to mCherry at the N-terminus; not shown: mCherry, N-terminal, kept
As to B1, the “doxycycline concentration at which ~50% of mCherry-GLUT1 is in multimeric complexes (doxycycline EC50 of BRET)” value turned out to be 4.69 ng/mL.
